Results from article PMC9121088, “The novel P330L pathogenic variant of aromatic amino acid decarboxylase maps on the catalytic flexible loop underlying its crucial role” (Cellular and Molecular Life Sciences: CMLS, 2022).
Where a chain is given by its changes, count along the chain named. Numbers in names are those of the source.

Assays:
[1] = molecular target: T1, aromatic amino acid decarboxylase (AADC), wild-type (Homo sapiens, UniProt P20711); assay: CD thermal denaturation at […] nm ([…] to […] °C); DLS of cDopa-bound form; format: binding
T1 construct: gene DDC
T1 sequence (P20711 1-480): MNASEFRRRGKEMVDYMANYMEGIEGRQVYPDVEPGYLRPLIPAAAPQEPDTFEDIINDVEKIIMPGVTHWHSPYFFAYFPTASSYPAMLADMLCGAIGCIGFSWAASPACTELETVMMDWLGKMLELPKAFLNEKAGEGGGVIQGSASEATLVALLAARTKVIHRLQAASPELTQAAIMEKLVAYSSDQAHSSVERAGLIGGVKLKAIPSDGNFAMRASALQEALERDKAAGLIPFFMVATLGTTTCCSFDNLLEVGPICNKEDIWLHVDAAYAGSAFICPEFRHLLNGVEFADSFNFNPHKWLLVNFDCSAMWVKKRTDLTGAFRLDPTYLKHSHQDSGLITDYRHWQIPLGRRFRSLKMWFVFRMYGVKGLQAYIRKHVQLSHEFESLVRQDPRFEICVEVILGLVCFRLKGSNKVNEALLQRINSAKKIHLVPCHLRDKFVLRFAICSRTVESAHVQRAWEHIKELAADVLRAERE

[2] = molecular target: T2, aromatic amino acid decarboxylase (AADC), P330L variant (Homo sapiens, UniProt P20711, P330L); assay: CD thermal denaturation at […] nm ([…] to […] °C) of cDopa-bound form; format: binding
T2 construct: gene DDC
T2 sequence (P20711 1-480 P330L): T1 sequence (P20711 1-480) with P330L

[3] = molecular target: T1, aromatic amino acid decarboxylase (AADC), wild-type; assay: intrinsic fluorescence quenching titration of apoenzyme (KD(PLP)); format: binding
[4] = molecular target: T2, aromatic amino acid decarboxylase (AADC), P330L variant; assay: as above; format: binding
purified protein [5] = substrate: N[C@@H](Cc1ccc(O)c(O)c1)C(=O)O; assay: purified protein; conditions: PLP active site; external aldimine with PLP; pH 7.4; 25.0 °C
purified protein [6] = substrate: N[C@@H](Cc1c[nH]c2ccc(O)cc12)C(=O)O; assay: purified protein; format: biochemical, Homo sapiens; conditions: pH 7.4; 25.0 °C

With C[C@@](Cc1ccc(O)c(O)c1)(NN)C(=O)O [cDopa, carbiDopa] the “WT (°C)” value [1] was 68.9 ± 0.4 °C and the “P330L (°C)” value [2] was 69.9 ± 0.3 °C.

In the case of Cc1ncc(COP(=O)(O)O)c(C=O)c1O [PLP, pyridoxal 5'-phosphate], the Kd [3] is reported as 101 ± 10 nM and the Kd [4] is reported as 123 ± 19 nM.

B1: aromatic amino acid decarboxylase (AADC), wild-type (Homo sapiens) (protein)
chain: T1 sequence (P20711 1-480)
In the case of B1, the Km (purified protein [5]) is reported as 16 ± 1 µM, the kcat (purified protein [5]) is reported as 5.5 s⁻¹ and the kcat/Km (purified protein [5]) is reported as 344000 M⁻¹ s⁻¹. It also gave a Km (purified protein [6]) of 9 ± 1 µM, a kcat (purified protein [6]) of 0.56 ± 0.02 s⁻¹ and a kcat/Km (purified protein [6]) of 62000 ± 7000 M⁻¹ s⁻¹.

B2: aromatic amino acid decarboxylase (AADC), P330L variant (Homo sapiens; P330L) (protein)
chain: T1 sequence (P20711 1-480) with P330L
In the case of B2, the Km (purified protein [5]) is reported as 57 ± 2 µM, the kcat (purified protein [5]) is reported as 0.0291 s⁻¹ and the kcat/Km (purified protein [5]) is reported as 510 M⁻¹ s⁻¹. It also gave a Km (purified protein [6]) of 29 ± 3 µM, a kcat (purified protein [6]) of 0.0092 ± 0.0003 s⁻¹ and a kcat/Km (purified protein [6]) of 320 ± 30 M⁻¹ s⁻¹.
